Results on one protein are retold here after FireProtDB (doi:10.1006/jmbi.1995.0616).

The conditions of the data set: Hordeum vulgare; pH 6.25; 25 °C; GdnHCl; Fluorescence; MES 50 mM; reversible: yes; whole UniProt chain shown.

B1: Subtilisin-chymotrypsin inhibitor-2A wild type, P01053 (protein)
chain: MSSVEKKPEGVNTGAGDRHNLKTEWPELVGKSVEEAKKVILQDKPEAQIIVLPVGTIVTMEYRIDRVRLFVDKLDNIAQVPRVG
B1: the denaturant m value is 1.9 kcal/mol/M, the “denaturant midpoint (higher = more stable)” value amounted to 4 M and the unfolding free energy is 7.6 kcal/mol.
